Experimental data: the DeepSol protein solubility set

Experiment: soluble on expression in E. coli; label from the status in PepcDB or PDB records

Sequence | soluble on expression in E. coli
MRYWKNSRIKMFEQEDEWISKTQMKKQMNDLQDLGMALTKLSNDTLKKIGLDADLYEAVTAYKKITSNGALKRQAQFIGRLMRDTDPAPIEAFLAKLRGDDAAHNAFLQRVEQARVRLLADDGALTQFMSDFPHADAGKLRTLIRNTKKEQEQNKPPKNFRALFQELKTVMENGDAEI | not soluble
GSHMDLLDPVDILSKMPKDFYDKLEEKKWTLRKESLEVLEKLLTDHPKLENGEYGALVSALKKVITKDSNVVLVAMAGKCLALLAKGLAKRFSNYASACVPSLLEKFKEKKPNVVTALREAIDAIYASTSLEAQQESIVESLSNKNPSVKSETALFIARALTRTQPTALNKKLLKLLTTSLVKTLNEPDPTVRDSSAEALGTLIKLMGDKAVTPLLADVDPLKMAKIKECQEKAEIKIKVAG | soluble
GPGSMEVYRRITERVRGALWAHHGRLMSERQFHRILAFVYNNKYEYQIRFDRMEVVGREWGGRVEVVTTPAGYLKRVRVNPCVEDLTLYQQQQLILSAYASACADGRKLMEQAEMNIYKQFLKDLKPIVMGIRDNPEFYTVPENSIETIGGVLQTGDSNNLCHTHRTIPAAKARQPTDEVRARQEWEQKWINSPRGQSWALTLRGKTYFTLHGPQYRPRGAPGAKKETLPLDIPAPYTAMDEKRLLKKNWMAYLDNKHVAEVMWTRVKIADREKRQRLLQETGRAWHRPINEEAINRW | not soluble
ASWSHPQFEKGAMSNYSMSRGHSDKCVGAEDILSEIKEAEKVLNAASDELKREGHNVKTFIDRTSTTQSANLNKIVNWHNANPADVHISVHLNAGKGTGVEVWYYAGDEKGRKLAVEISAKMAKALGLPNRGAKATKDLRFLNSTKGTAVLLEVCFVDRKEDANAIHKSGMYDKLGIAIAEGLTGKTVAAKNPNRHSGAVVDSVPMLSKMDFKSSPIKMYKAGSSLLVYEHNKYWYKAYINDKLCYIYKSFCISNGKKDAKGRIKVRIKSAKDLRIPVWNNTKLNSGKIKWYSPGTKLSWYDNKKGYLELWYEKDGWYYTANYFLK | soluble
MGSSHHHHHHSSGLVPRGSHMRKVKIGELINSLVSEVEAIDASDRPQGDKTKKIKAAALKYKNALFNDKRKFRGKGLEKRISANTFNSYMSRARKRFDDRLHHNFEKNVIKLSEKYPLYSEELSSWLSMPAASIRQHMSRLQAKLKEIMPLAEDLSNIKIGTKNSEAKINKLANKYPEWQFAISDLNSEDWKDKRDYLYKLFQQGSSLLEDLNNLKVNHEVLYHLQLSSAERTSIQQRWANVLSEKKRNVVVIDYPRYMQAIYDIINKPIVSFDLTTRRGMAPLAFALAALSGRRMIEIMLQGEFSVAGKYTVTFLGQAKKRSEDKGISRKIYTLCDATLFVSLVNELRSCPAAADFDEVIKGYGENDTRSENGRINAILATAFNPWVKTFLGDDRRVYKDSRAIYARIAYEMFFRVDPRWKNVDEDVFFMEILGHDDENTQLHYKQFKLANFSRTWRPNVGEENARLAALQKLDSMMPDFARGDAGVRIHETVKQLVEQDPSIKITNSTLRPFNFSTRLIPRYLEFAADALGQFVGENGQWQLKDEAPAIVLPDEEI | soluble
MPTDIFSFKQFDIDQTGCAMRVGTDGVLLGAWAGEDAAGSIPQHCLDIGTGTGLIALMLAQRFPQARVQGIEIDPIAAECARANAAASPFSDRIVIASGDILDSSLESLIGNQRFDLIVSNPPFFKSSMHAPDRQRTMARHEETLPLEKLICRASELLSPQGRLALITPRDRLKDLRLYAATYRLVSSRLTEVRTLPHKEPKRLLSEWRPADTAIDRSPFTDTLIIHPATGYYSPEYVRLTEPFYTTSFRILAVG | soluble
DNPINIAVPGVAQQNVSATINNGTLTRRGNLWIARPTKVGSEAIISVTAQSGGRTIQMAKTTLRVRALPDPLPYIEYKDVQGNTKRFKGGRLGKREILAAGGIKAALDDDLLEVNYTVVKFQLVFYDSMGNSIPEVSDGASFSERQKRQIQNLGKGKRFYVTEVIARGPDGIERKIPAIEVIVN | not soluble
MGSDKIHHHHHHMEKEMLTFDITNDFIVGDRITKETLNKYSKLPHKIKAGLFLLCVEGSVQASINLAKYTINKYDFVTLVPSNFIQFHEISDDARFYFAGFSSEFMTNINFIKSTMSFLPVITEHPIMPLEESVAQLYIDGYRLLIRAQSLSPSYSMVNKNLVIAYLTIFMQGTAELYKNHSHWTNGIRTRTNEIYRKFIQLVVEHYTTEHSVSFYAAQLNLSLPHFCTTIKKAIGLTPLEIISSIITMDAKAQLRSTDLTVKEIAFSLGFNNLSFFNKYFRQHTGMTPQEYRRMKIPSST | not soluble
MSLKNVLTGLFLLILATACSEEEPQTITPVPFNQVTLTDGFWKNRMQTEINVTVPFSVEQSAPAVERFRRCAAFLAGDSTALPETHRFISSDLYKVMEGVSYSLMIQPNKELEEFMDRVADLITASQKDDGYLYISHICGNPDPREMGEKPYSWVVHSHELYNVGHLYEAAVAYYQATGKDKLLNVAIKSAKHVNKVFFEGGDPNYNGGKPINQAPGHEEIELALCKLYRVTNDPLYLDMAKKFLEIRGVTYRPEGEGVMAPTYAQQHAPVKEQTEAVGHAVRAAYLYTAMAQVDALTGLNDYTKALNSIWTNLVTTRMHITGGLGAVEGMEGFGAPYELPNLTAYNETCAAVANVFFNYGMYLDSGDAKFLDIAELSLFNNSLAGINLHGDRFFYVNPLEADGVRRFNHGNGGRAKWFGCACCPPNISRLILQVPGYMYAYSKDRVYLTLYGGSQTTIPLEGTRVKLEQTSAYPFDGKVRLTVQPEKGSKFSVCMRIPTWARSDEFVPGGLYPYKQPKQAEVELSVNGQKTDFKMEKGFAVIKRDWKPGDVVELNIPMPVRFVDCIPEVSENIGKTAVTRGPLVYCAEEVDNAGPVQRLYLGDTNEAQAKVANISSGVLQGLERITLPGMEKKVGGITSREITMIPYYAWCNRGDNRTMLVWLNEEASTASIGQQTMAYLRNVKGVNASSVAGGKNISVRALCDGKVSESSADKLTEQWVSEGSGKQWVQVDFREPFLLNSLSVYWLDDQDKITVPSGWSVEYKSDAGWTPLELYVTDSYQMGTDRFNVVHPSGSLEVESVRILIEPQKGKSIGVSEIRFEEGHHHHHH | soluble
MGSDKIHHHHHHMTPTVMVVDESRITFLAVKNALEKDGFNVIWAKNEQEAFTFLRREKIDLVFVDVFEGEESLNLIRRIREEFPDTKVAVLSAYVDKDLIINSVKAGAVDYILKPFRLDYLLERVKKIISSTPRVTVSLRKNIEDLEITLKFEDIVRKEIKRSNRTGSRFCVMYVKFEDIMRDYETIKKFFRETDYVLPISASEYLFVLTLTGKHGIEAVTRRMKEKLSERFSYTYVCYPDDGKTYEEIILTLKDRMAKPRGNES | not soluble
MGSDKIHHHHHHREEAPNAEADILSCRLPGVVMTTSPIITNNSINIFVGPGTDISSLAPEFTLTPGATIDPPSGTARDFHSPQQYTVTAADGFWKKKYTVSVIDTELATIYNFEDTLGGQKYYIFVEREGEKVVMEWASGNAGYAMTGVPKTADDYPTFQFANGKTGKCLSLVTRSTGFFGSIMGMPIAAGNLFIGSFDVGNAMSNPLKATKFGLPFRHIPTYLAGYYKYKAGDQFTEGGKPVSGKRDICDIYAIMYETSESVPTLDGTNAFTSPNLVSIARIDDAKETDEWTYFKLPFHMLSGKYIDKEKLTAGKYNVAIVFTSSLEGDHFNGAIGSTLLIDEVELIYRSED | not soluble
MTMMTATQALSVNPATGQTLAAMPWANAQEIEHALSLAASGFKKWKMTSVAQRAQTLRDIGQALRAHAEEMAQCITREMGKPIKQARAEVTKSAALCDWYAEHGPAMLNPEPTLVENQQAVIEYRPLGVILAIMPWNFPLWQVLRGAVPILLAGNSYLLKHAPNVTGCAQMIARILAEAGTPAGVYGWVNANNEGVSQMINDPRIAAVTVTGSVRAGAAIGAQAGAALKKCVLELGGSDPFIVLNDADLELAVKAAVAGRYQNTGQVCAAAKRFIVEEGIAQAFTDRFVAAAAALKMGDPLVEENDLGPMARFDLRDELHQQVQASVAEGARLLLGGEKIAGEGNYYAATVLADVTPDMTAFRQELFGPVAAITVAKDAAHALALANDSEFGLSATIFTADDTLAAEMAARLECGGVFINGYSASDARVAFGGVKKSGFGRELSHFGLHEFCNVQTVWKNRV | soluble
SRQETGGNLMSEPLLIARTPDTELFLLPGMANRHGLITGATGTGKTVTLQKLAESLSEIGVPVFMADVKGDLTGIAQAGTASEKLLTRLKNIGVNDWQPHANPVVVWDIFGEKGHTVRATVSDLGPLLLARLLNLNDVQSGVLNIIFRIADDQGLLLLDFKDLRAITQYIGDNAKSFQNQYGNISSASVGAIQRGLLSLEQQGAAHFFGEPMLDIKDWMRTDANGKGVINILSAEKLYQMPKLYAASLLWMLSELYEQLPEAGDLEKPKLVFFFDEAHLLFNDAPQVLLDKIEQVIRLIRSKGVGVWFVSQNPSDIPDNVFGQLGNRVQHALRAFTPKDQKAVKTAAQTMRANPAFDTEKAIQELGTGEALISFLDAKGSPSVVERAMVIAPCSRMGPVTEDERNGLINHSPVYGKYEDEVDRESAYEMLQKGFQASTEQQNNPPVKGKEVAVDDGILGGLKDILFGTTGPRGGKKDGVVQTMAKSAARQVTNQIVRGMLGSLLGGRKR | not soluble
MKVLKCGVMLLSILFVSQLHVYAEENRWTWPVEGQISDYFGTRHGKHYGIDVAAPIGTPVVAIQDGKVTRSYYSSSYGNVVFIKHGEYEAVYAHLNKRYVNQGDYISKGEKIGEVGNTGESRGAHLHLELHQGRWTMAKKNAMNPLLVLSEQRNEVVSSSLYVVQKGDTLVSIARKFSMTLKEIKEKNGLQQELIYPNQQLYVK | not soluble
MGSDKIHHHHHHMKKNVQIKGTKSGISIFLSDKASISELQQELSQLLADQKQNPYSGEKLEVQVQIGNRLFSEEEEREISTIIHNNSQMKISAFYSNVMSKDEAKKWKENDQIFSMATIIRSGQVVQVPGDFLLIGDVNPGGQIRSNGNVFVLGNIKGIIHAGFEGDENAVVAGKFLYPSQVRIAGKVYGFDSEDYKEVADTDLFSAFVNDAGEIVIDEIHKIRKIRPEISNFQGGR | not soluble
MGSDKIHHHHHHMQKLMHCSIMDLRLLVAVADAGNMSKGGAVCFLAPSTASLRIKHLEAIVGTRLFRREARGVSLTRAGQIMVDHSRRCLTEIEQMQASLTPFSEDVHAQLVLYANSSAIASFLPGDLQGFLQSHPKARITLEEHLSRDVLVAVVEGRADIGILTKDEPHPDLVYFPYHEDEIVLLLAETQPWTKTEPVAFLDCLSFPFVSQQNGSAIHSFLLAKASEQGRRVDVRIQVAGFAAVASMVRSGVGVAIVPRSALAAINVEGLRVVALSDAWARRTLSLCVRRDVLGSRNYVTALVDVLRQSGDQAGVADSA | not soluble
MTTRQIKIVPKLIAIFTGKAAVRAAWGGRGSGKTRSFALMAALKGYQFGMGGISGTILCARQFQNSLAESSLEEIKRAIEGHDFLKDYYKVGESSIKSIDGRIAFQFSGLDRNIASIKSMGRILLCWVDEAEPVTETAWQTLIPTLREEGEGWRAELWVTWNPLRDNAPVERRFRFSNNEAIKRVEINWSDNPKFPKILNEARLDDLKNRPETYKHIWEGAYLTAVQGAYYQKEMLAAEQEGRIGRVARDPLMQMRAFWDIGGTGAKADATAIWIAQFVGREIRVLDYYEAQGQPLSEHIGWLRRNGYEKALMVLPHDGATRDRVHNVSFESALNDAGFETQVIPHQGAGAVKMRIEAVRRILPSVWFHEETTVAGRKALNWYHEKWDEKRGIGLGAEHDWSSHGADAFGLMCIVYEAPRIKPQQERYRAIEREAASWMAF | not soluble
MADTVKLFPENLVTYKLLGEPDGPHYAHYDLVGGRLVVSKKCVSEAPVKKDAISV | not soluble
